Test results published in US20220411516A1.

Target: EGFRvIII (Epidermal Growth Factor Receptor Variant III) (human) (UniProt P00533)
Test: cell-based or functional assay

B1: AMG 596 (bispecific antibody, part only; not given: CD3-binding domain; linkers, part only)
chain, part: QVQLVESGGGVVQSGRSLRLSCAASGFTFRNYGMHWVRQAPGKCLEWVAVIWYDGSDKYYADSVRGRFTISRDNSKNTLYLQMNSLRAEDTAVYYCARDGYDILTGNPRDFDYWGQGTLVTVSSDTVMTQTPLSSHVTLGQPASISCRSSQSLVHSDGNTYLSWLQQRPGQPPRLLIYRISRRFSGVPDRFSGSGAGTDFTLEISRVEAEDVGVYYCMQSTHVPRTFGCGTKVEIK
EC20 (in vitro cytotoxic activity): 0.07 ng/mL | EC50 (in vitro cytotoxic activity): 0.41 ng/mL | EC90 (concentration found to produce 90% cytotoxic activity): 1.8 ng/mL
